This assay concerns the target T1, CD47, biotin-conjugated antigen (Homo sapiens, UniProt Q08722, biotin-conjugated).
T1 construct: CD47; Probably the extracellular domain (surmise); also called antigen CD47; source: bought: Sino Biological Inc
Description: BLI; ForteBio Octet RED96; streptavidin-coated tips loaded with biotin-conjugated PD-L1 or CD47 (100 nM); antibodies or fusion proteins in solution at 25, 50, 75, 100, 125 and 150 nM; dissociation in PBS; 37 °C; global fit, KD = kd/ka. The conditions noted are these: both partners purified.

B1: anti-CD47 mAb (B6H12), positive control antibody made in-house (antibody, V domains shown)
VH: EVQLVESGGGLVQPGGSLRLSCAASGFTFSGYGMSWVRQAPGKGLEWVATITSGGTYTYYPDSVKGRFTISRDNAKNSLYLQMNSLRAEDTAVYYCARSLAGNAMDYWGQGTLVTVSS
VL: EIVLTQSPATLSLSPGERATLSCRASQTISDYLHWYQQKPGQAPRLLIKFASQSISGIPARFSGSGSGTDFTLTISSLEPEDFAVYYCQNGHGFPRTFGQGTKVEIK
notes: source: produced in-house from plasmids pUC57/B6H12-Lc and pUC57/B6H12-Hc
In turn, B1 had a dissociation constant Kd of 4.08 pM, a dissociation rate constant (koff) of 3.99e-07 s⁻¹ and a kon of 97900 M⁻¹ s⁻¹.

(Values after publication PMC9405206 (Biomedicines, 2022).)
